Experimental data: patent US20260167733A1 (CLEVELAND CLINIC FOUNDATION, published 2026)

T1: human AMHR2 on AMHR2-OVCAR8 cells (human, UniProt Q16671 18-573)
T1 construct: whole, on cells; Also the target in IHC of human HGSOC tumour tissue sections; also called AMHR2-ED on human EOC cells; anti-Mullerian hormone receptor type II
T1 sequence (looked up): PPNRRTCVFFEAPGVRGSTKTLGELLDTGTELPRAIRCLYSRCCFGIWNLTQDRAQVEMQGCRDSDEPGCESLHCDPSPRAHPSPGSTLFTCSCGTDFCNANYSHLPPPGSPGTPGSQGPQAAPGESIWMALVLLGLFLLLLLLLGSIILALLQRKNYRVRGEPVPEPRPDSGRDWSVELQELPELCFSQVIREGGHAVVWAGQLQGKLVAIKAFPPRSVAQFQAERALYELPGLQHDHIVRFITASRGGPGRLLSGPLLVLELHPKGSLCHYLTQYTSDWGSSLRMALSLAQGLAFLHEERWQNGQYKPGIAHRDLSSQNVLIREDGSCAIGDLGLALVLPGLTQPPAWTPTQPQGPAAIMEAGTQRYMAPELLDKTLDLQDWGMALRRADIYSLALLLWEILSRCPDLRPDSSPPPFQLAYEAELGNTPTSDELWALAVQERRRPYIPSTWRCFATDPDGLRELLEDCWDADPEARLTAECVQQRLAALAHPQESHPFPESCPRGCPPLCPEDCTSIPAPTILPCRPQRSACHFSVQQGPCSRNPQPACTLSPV

B1: Anti-AMHR2-ED 4D12G1 Chimeric antibody (antibody, human IgG1, kappa, V domains shown)
VH: DVKLVESGGGLVKLGGSLKLSCAASGFTFSRYFMSWVRQTPEKRLELVAAINSDGGRTYYPDTVKGRFTISRDNAKNTLYLQMSSLKSEDTALYYCTRHIYSYYEDYFDYWGQGTTLTVSS
VL: DVVMTQTPLSLPVSLGDQASISCRSSQSLVHSNGNTYLHWYLQKPGQSPKLLIYKVSKRFSGVPDRFSGSGSGTDFTLKISRVEAEDLGVYFCSQSTHVYTFGGGTKLEIKR
notes: also called chimeric 4D12G1 mAb; Chimeric 4D12G1
B2: Anti-AMHR2-ED 4D12G1 Variant 5 antibody (antibody, human IgG1, kappa)
heavy: not shown
light: DVVMTQTPLSSPVTLGQPASISCRSSQSLVHSNGNTYLHWYQQRPGQPPKLLIYKVSKRFSGVPDRFSGSGSGTDFTLKISRVEAEDVGVYFCSQSTHVYTFGQGTKLEIKRTVAAPSVFIFPPSDEQLKSGTASVVCLLNNFYPREAKVQWKVDNALQSGNSQESVTEQDSKDSTYSLSSTLTLSKADYEKHKVYACEVTHQGLSSPVTKSFNRGEC
notes: Humanized variant of 4D12G1; also called humanized 4D12G1 variant 5 mAb; 4D12G1 variant 5 mAb
B3: Anti-AMHR2-ED 4D12G1 Variant 6 antibody (antibody, human IgG1, kappa)
heavy: not shown
light: B2 light
notes: Humanized variant of 4D12G1; also called humanized 4D12G1 variant 6 mAb; Hu4D12G1-6

The binders below were run against T1, human AMHR2 on AMHR2-OVCAR8 cells (assay: flow cytometry on AMHR2-OVCAR8 cells).
Protocol: The human AMHR2-OVCAR8 cells expressing high levels of human AMHR2 were treated with Fc-receptor block (BD Biosciences, San Jose, CA) and immunostained with 5 μg of a human isotype control IgG1 mAb as well as with 5 μg of the chimeric 4D12G1 mAb and variants 5 and 6 of the humanized 4D12G1 mAb. Cells were then treated with FITC-labeled goat anti-human IgG (BD Biosciences) and analyzed by flow cytometry using a FACSAria II flow cytometer and BDFacsDiva software (BD Biosciences). […] Insets show darkly staining regions of AMHR2-ED expression which occurs primarily in the parenchyma, with some staining also visible in the stroma.

Row | binding result | Binder
1 | binds | B1
2 | binds | B2
3 | binds | B3
